These results are taken from CN117736312A (SHANGHAI BOVAX BIOLOGICAL SCIENCE & TECH CO LTD, dated 2024).

Common to all, as to experiment: sandwich ELISA (rabbit anti-L1 capture)
On the technique in general: An ELISA detects its analyte on a solid surface through an enzyme-linked reagent.

Test [1] has as its target T1, HPV6L1 (human papillomavirus type 6, UniProt P69899 1-500).
T1 construct: also called HPV 6 L1原液
T1 sequence: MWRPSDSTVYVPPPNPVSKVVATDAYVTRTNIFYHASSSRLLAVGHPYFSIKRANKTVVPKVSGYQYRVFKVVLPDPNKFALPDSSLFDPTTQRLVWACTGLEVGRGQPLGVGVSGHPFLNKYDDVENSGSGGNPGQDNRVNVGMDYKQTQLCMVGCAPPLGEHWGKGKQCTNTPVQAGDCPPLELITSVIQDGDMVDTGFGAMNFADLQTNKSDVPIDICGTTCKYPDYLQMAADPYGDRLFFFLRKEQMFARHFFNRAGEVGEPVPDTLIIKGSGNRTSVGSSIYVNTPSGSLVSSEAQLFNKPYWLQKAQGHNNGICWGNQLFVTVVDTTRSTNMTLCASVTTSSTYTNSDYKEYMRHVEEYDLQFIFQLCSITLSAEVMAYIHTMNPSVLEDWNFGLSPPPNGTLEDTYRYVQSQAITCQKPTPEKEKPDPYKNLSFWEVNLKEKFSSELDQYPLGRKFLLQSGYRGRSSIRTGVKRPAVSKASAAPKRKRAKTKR

The target of test [2] is T2, HPV16L1 (human papillomavirus type 16, UniProt P03101 1-505).
T2 sequence: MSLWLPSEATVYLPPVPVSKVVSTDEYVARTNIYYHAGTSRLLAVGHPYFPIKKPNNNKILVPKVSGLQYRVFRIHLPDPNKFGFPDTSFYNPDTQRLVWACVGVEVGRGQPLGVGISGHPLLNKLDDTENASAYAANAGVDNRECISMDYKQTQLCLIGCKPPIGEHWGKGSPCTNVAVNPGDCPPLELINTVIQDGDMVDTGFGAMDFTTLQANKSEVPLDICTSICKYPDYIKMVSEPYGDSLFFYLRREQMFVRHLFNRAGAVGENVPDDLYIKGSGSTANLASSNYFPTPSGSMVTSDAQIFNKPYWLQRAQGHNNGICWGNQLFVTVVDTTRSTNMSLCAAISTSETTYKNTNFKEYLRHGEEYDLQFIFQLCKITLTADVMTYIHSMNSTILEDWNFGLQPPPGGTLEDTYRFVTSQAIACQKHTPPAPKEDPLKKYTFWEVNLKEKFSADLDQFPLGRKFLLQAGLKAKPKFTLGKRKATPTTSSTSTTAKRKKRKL

The target in test [3] is T3, HPV58L1 (human papillomavirus type 58, UniProt P26535 27-524).
T3 sequence: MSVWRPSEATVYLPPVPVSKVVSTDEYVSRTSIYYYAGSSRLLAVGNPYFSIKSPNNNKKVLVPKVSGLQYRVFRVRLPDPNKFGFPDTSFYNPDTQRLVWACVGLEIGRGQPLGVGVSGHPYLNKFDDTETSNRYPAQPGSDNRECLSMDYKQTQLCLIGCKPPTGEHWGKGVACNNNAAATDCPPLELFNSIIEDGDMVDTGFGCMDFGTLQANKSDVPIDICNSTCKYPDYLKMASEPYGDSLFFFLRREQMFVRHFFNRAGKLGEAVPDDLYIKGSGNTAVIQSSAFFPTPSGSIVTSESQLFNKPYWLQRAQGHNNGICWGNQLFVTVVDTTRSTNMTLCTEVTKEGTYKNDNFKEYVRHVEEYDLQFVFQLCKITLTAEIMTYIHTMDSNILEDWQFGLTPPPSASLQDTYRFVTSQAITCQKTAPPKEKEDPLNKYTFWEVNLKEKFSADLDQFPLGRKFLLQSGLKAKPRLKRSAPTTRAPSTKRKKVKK

B1: HPV 59编号为30单克隆抗体 (antibody, V domains shown)
VH: QIQLVQSGPELKKPGETVKISCKASGYTFTDYSMHWVKQAPGKGLKWMGWINTETGEPTYADDFKGRFAFSLETSASTAYLQINNLKIEDTATYFCTRDGYVWYFDVWGAGTTVTVSS
VL: QIVLSQSPAILSASPGEKVTMTCRASSSVNYMHWYQQKPGSSPKPWIYATSNLASGVPARFSGSGSGTSYSLTISRVEAEDAATYYCQQWSSNPIFTFGSGTKLEIK
notes: Mouse hybridoma antibody tested as cell supernatant; also called 59H30
Consider B1, for which the binding result in test [1], in test [2] and in test [3] was “no binding (tested: 原液40μg/ml; 细胞上清1:100)” each time.
